From article doi:10.1101/765990 (bioRxiv, 2019) come the findings set out here.

The target in the assay is T1, Sed5p Habc domain (amino acids 1-210) (budding yeast, UniProt Q01590 1-210).
T1 sequence: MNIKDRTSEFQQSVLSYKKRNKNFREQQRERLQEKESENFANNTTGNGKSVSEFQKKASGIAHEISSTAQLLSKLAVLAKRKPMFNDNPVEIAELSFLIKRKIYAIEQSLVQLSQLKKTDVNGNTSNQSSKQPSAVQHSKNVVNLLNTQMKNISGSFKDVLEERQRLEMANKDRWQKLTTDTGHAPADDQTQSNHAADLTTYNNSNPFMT
The experiment in a line: native gel or EMSA. On the technique in general: In EMSA bound probe runs differently from free probe, usually more slowly.

B1: Sed5p SNARE-motif (amino acids 211-320), wild type (domain or fragment)
chain: SLLDESSEKNNNSSNQGELSFPQNDSQLMLMEEGQLSNNVYLQERNRAVETIESTIQEVGNLFQQLASMVQEQGEVIQRIDANVDDIDLNISGAQRELLKYFDRIKSNRW
Consider B1, for which the binding result is “binds”.
